Experimental data reported in PMC5385555, “Molecular basis for the behavioral effects of the odorant degrading enzyme Esterase 6 in Drosophila” (Scientific Reports, 2017).

Key:
[1] = substrate: CC(=O)Oc1ccc([N+](=O)[O-])cc1; assay: UV/vis substrate-loss assay; type: biochemical, Drosophila melanogaster; settings: Tris-HCl pH 8.0, 25 °C, 5% ethanol (Table S1), Fig. S1 without ethanol
[2] = substrate: CC(=O)Oc1ccc2ccccc2c1; assay: UV/vis substrate-loss assay; type: biochemical, Drosophila melanogaster; settings: Tris-HCl pH 8.0, 25 °C, 5% ethanol

B1: EST6 (wildtype EST6, EST6-WT) (Drosophila melanogaster) (protein)
chain: SDTDDPLLVQLPQGKLRGRDNGSYYSYESIPYAEPPTGDLRFEAPEPYKQKWSDIFDATKTPVACLQWDQFTPGANKLVGEEDCLTVSVYKPKNSKRNSFPVVAHIHGGAFMFGAAWQNGHENVMREGKFILVKISYRLGPLGFVSTGDRDLPGNYGLKDQRLALKWIKQNIASFGGEPQNVLLVGHSAGGASVHLQMLREDFGQLARAAFSFSGNALDPWVIQKGARGRAFELGRNVGCESAEDSTSLKKCLKSKPASELVTAVRKFLIFSYVPFAPFSPVLEPSDAPDAIITQDPRDVIKSGKFGQVPWAVSYVTEDGGYNAALLLKERKSGIVIDDLNERWLELAPYLLFYRDTKTKKDMDDYSRKIKQEYIGNQRFDIESYSELQRLFTDILFKNSTQESLDLHRKYGKSPAYAYVYDNPAEKGIAQVLANRTDYDFGTVHGDDYFLIFENFVRDVEMRPDEQIISRNFINMLADFASSDNGSLKYGECDFKDNVGSEKFQLLAIYIDGCQNRQHVEFP
notes: wildtype, baculovirus expressed, semi-purified; N-terminal signal peptide of 63 bp (21 residues) in the gene
Question: How did the Km [1] turn out when B1 was run?
Answer: 269 ± 18 µM

Question: What about the kcat [1] of the same protein?
Answer: 105 ± 2 s-1 (head prints M.s-1)

Question: What about the Km [2] of the same protein?
Answer: 121 ± 6 µM

Question: And the kcat [2]?
Answer: 135 ± 2 s-1 (head prints M.s-1)
